The values that follow come from the supplement of paper PMC10567573.

B1: WEE1 (parent)
chain: FLGSSFSPVRCGGPGDASPRGCGA
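Further: lentivirally expressed fusions sorted by FACS into six bins by GFP to DsRed ratio, PSI derived from sequencing read proportions per bin multiplied by bin number.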

The variants in this data set derive from B1. Nature of the data set: protein stability index of a GFP-peptide fusion (GPS, HEK-293T) (PSI 1-6); higher = more stable. To be noted: c terminus: a fixed tail appended.
For the variant FLGSSFSPVRCGGPGDAKPRGCGA [S18K], the protein stability index came to 2.07.

On to FLGSSFSPVRCGGPGDASPRGWGA [C22W], for which the protein stability index is 2.96.

Turning to FLGSSFSPVRCGGPGDASPRGAGA [C22A], the protein stability index amounted to 1.88.

On to FLGSSFSPVRCGGPGDASPRGIGA [C22I], for which the protein stability index stood at 1.58.

For FLGSSFSPVRCGGPGDASPRGEGA [C22E], the protein stability index turned out to be 1.95.

Consider FLGSSFSPVRCGGPGDASPRGFGA [C22F], for which the protein stability index came to 2.48.

With FLGSSFSPVRCGGPGDASPRGLGA [C22L], the protein stability index amounted to 1.75.

For the variant FLGSSFSPVRCGGPGDASPRGTGA [C22T], the protein stability index is 2.47.

Turning to FLGSSFSPVRCGGPGDASPRGPGA [C22P], the protein stability index turned out to be 1.59.

On to FLGSSFSPVRCGGPGDASPRGQGA [C22Q], for which the protein stability index is 1.73.

As to FLGSSFSPVRCGGPGDASPRGMGA [C22M], the protein stability index came out at 1.87.

For the variant FLGSSFSPVRCGGPGDASPRGKGA [C22K], the protein stability index is 2.17.

For the variant FLGSSFSPVRCGGPGDASPRGGGA [C22G], the protein stability index was found to be 2.13.

On to FLGSSFSPVRCGGPGDASPRGYGA [C22Y], for which the protein stability index amounted to 2.1.

Regarding FLGSSFSPVRCGGPGDASPRGRGA [C22R], the protein stability index was 2.27.

For FLGSSFSPVRCGGPGDASPRGNGA [C22N], the protein stability index amounted to 1.8.

In the case of FLGSSFSPVRCGGPGDASPRGVGA [C22V], the protein stability index came out at 1.73.

For the variant FLGSSFSPVRCGGPGDASPRGHGA [C22H], the protein stability index worked out at 2.94.

Turning to FLGSSFSPVRCGGPGDASPRGDGA [C22D], the protein stability index was 1.61.

Regarding FLGSSFSPVRCGGPGDASPRGSGA [C22S], the protein stability index was determined as 2.73.

For FLGSSFSPVRCGGPGDASPRGCGR [A24R], the protein stability index was found to be 1.98.

As for FLGSSFSPVRCGGPGDASPRGCGM [A24M], the protein stability index is 1.02.

Turning to FLGSSFSPVRCGGPGDASPRGCGD [A24D], the protein stability index worked out at 2.27.

In the case of FLGSSFSPVRCGGPGDASPRGCGV [A24V], the protein stability index is 1.6.

Consider FLGSSFSPVRCGGPGDASPRGCGF [A24F], for which the protein stability index stood at 2.42.

Regarding FLGSSFSPVRCGGPGDASPRGCGQ [A24Q], the protein stability index turned out to be 1.52.

Turning to FLGSSFSPVRCGGPGDASPRGCGK [A24K], the protein stability index stood at 2.17.

As for FLGSSFSPVRCGGPGDASPRGCGP [A24P], the protein stability index amounted to 1.58.

Turning to FLGSSFSPVRCGGPGDASPRGCGW [A24W], the protein stability index is 1.37.

For FLGSSFSPVRCGGPGDASPRGCGG [A24G], the protein stability index amounted to 1.75.

Turning to FLGSSFSPVRCGGPGDASPRGCGL [A24L], the protein stability index came to 1.82.

Consider FLGSSFSPVRCGGPGDASPRGCGE [A24E], for which the protein stability index came to 1.88.

As for FLGSSFSPVRCGGPGDASPRGCGS [A24S], the protein stability index turned out to be 1.58.

For the variant FLGSSFSPVRCGGPGDASPRGCGY [A24Y], the protein stability index was determined as 1.75.

Turning to FLGSSFSPVRCGGPGDASPRGCGC [A24C], the protein stability index worked out at 2.6.

Turning to FLGSSFSPVRCGGPGDASPRGCGI [A24I], the protein stability index amounted to 1.42.

Turning to FLGSSFSPVRCGGPGDASPRGCGH [A24H], the protein stability index is 1.52.

As for FLGSSFSPVRCGGPGDASPRGCGN [A24N], the protein stability index was 2.28.

For FLGSSFSPVRCGGPGDASPRGCGT [A24T], the protein stability index amounted to 2.01.

Turning to FLGSSFSPVRCGGPGNASPRGCGA [D16N], the protein stability index stood at 1.39.

Take FLGSSFSPVRCGGPGEASPRGCGA [D16E]: the protein stability index was 1.93.

As for FLGSSFSPVRCGGPGLASPRGCGA [D16L], the protein stability index turned out to be 1.88.

For FLGSSFSPVRCGGPGCASPRGCGA [D16C], the protein stability index is 2.57.

In the case of FLGSSFSPVRCGGPGVASPRGCGA [D16V], the protein stability index was found to be 1.91.

Consider FLGSSFSPVRCGGPGQASPRGCGA [D16Q], for which the protein stability index was found to be 1.86.

FLGSSFSPVRCGGPGHASPRGCGA [D16H]: the protein stability index came out at 2.27.

As to FLGSSFSPVRCGGPGIASPRGCGA [D16I], the protein stability index was determined as 1.61.

FLGSSFSPVRCGGPGMASPRGCGA [D16M]: the protein stability index came to 2.45.

As for FLGSSFSPVRCGGPGWASPRGCGA [D16W], the protein stability index is 1.74.

FLGSSFSPVRCGGPGFASPRGCGA [D16F]: the protein stability index came to 2.35.

Consider FLGSSFSPVRCGGPGRASPRGCGA [D16R], for which the protein stability index was determined as 2.06.

For FLGSSFSPVRCGGPGKASPRGCGA [D16K], the protein stability index was found to be 1.81.

On to FLGSSFSPVRCGGPGSASPRGCGA [D16S], for which the protein stability index was 2.09.

As to FLGSSFSPVRCGGPGYASPRGCGA [D16Y], the protein stability index is 1.23.

FLGSSFSPVRCGGPGAASPRGCGA [D16A]: the protein stability index turned out to be 1.26.

On to FLGSSFSPVRCGGPGGASPRGCGA [D16G], for which the protein stability index amounted to 1.99.

Take FLGSSFSPVRCGGPGPASPRGCGA [D16P]: the protein stability index is 1.73.

Regarding FLGSSFSPVRCGGPGTASPRGCGA [D16T], the protein stability index worked out at 1.57.

Take FLGSSFSPVRCGGPGDASARGCGA [P19A]: the protein stability index worked out at 2.78.

As to FLGSSFSPVRCGGPGDASHRGCGA [P19H], the protein stability index is 1.25.

For the variant FLGSSFSPVRCGGPGDASSRGCGA [P19S], the protein stability index stood at 1.8.

As for FLGSSFSPVRCGGPGDASWRGCGA [P19W], the protein stability index was found to be 2.52.

As for FLGSSFSPVRCGGPGDASDRGCGA [P19D], the protein stability index stood at 2.

Consider FLGSSFSPVRCGGPGDASERGCGA [P19E], for which the protein stability index was 2.14.

As to FLGSSFSPVRCGGPGDASNRGCGA [P19N], the protein stability index is 2.45.

For the variant FLGSSFSPVRCGGPGDASKRGCGA [P19K], the protein stability index was 1.93.

Consider FLGSSFSPVRCGGPGDASMRGCGA [P19M], for which the protein stability index came to 1.35.

In the case of FLGSSFSPVRCGGPGDASCRGCGA [P19C], the protein stability index was 1.98.

For the variant FLGSSFSPVRCGGPGDASTRGCGA [P19T], the protein stability index was determined as 1.88.

Turning to FLGSSFSPVRCGGPGDASYRGCGA [P19Y], the protein stability index amounted to 1.12.

Regarding FLGSSFSPVRCGGPGDASGRGCGA [P19G], the protein stability index came out at 2.

As for FLGSSFSPVRCGGPGDASLRGCGA [P19L], the protein stability index amounted to 2.31.

Turning to FLGSSFSPVRCGGPGDASQRGCGA [P19Q], the protein stability index was 1.57.

For FLGSSFSPVRCGGPGDASRRGCGA [P19R], the protein stability index is 2.38.

Take FLGSSFSPVRCGGPGDASIRGCGA [P19I]: the protein stability index stood at 1.57.

Turning to FLGSSFSPVRCGGPGDASVRGCGA [P19V], the protein stability index came to 2.23.

With FLGSSFSPVRCGGPGDASFRGCGA [P19F], the protein stability index is 2.62.

Consider FLGSSFSPVRCGGPGDASPDGCGA [R20D], for which the protein stability index is 2.17.

Take FLGSSFSPVRCGGPGDASPEGCGA [R20E]: the protein stability index was 2.28.

For FLGSSFSPVRCGGPGDASPQGCGA [R20Q], the protein stability index was 2.12.

In the case of FLGSSFSPVRCGGPGDASPPGCGA [R20P], the protein stability index is 2.14.

With FLGSSFSPVRCGGPGDASPTGCGA [R20T], the protein stability index worked out at 1.8.

In the case of FLGSSFSPVRCGGPGDASPVGCGA [R20V], the protein stability index was found to be 1.79.

In the case of FLGSSFSPVRCGGPGDASPAGCGA [R20A], the protein stability index is 2.27.

FLGSSFSPVRCGGPGDASPHGCGA [R20H]: the protein stability index was found to be 1.33.

With FLGSSFSPVRCGGPGDASPWGCGA [R20W], the protein stability index came to 2.19.

For FLGSSFSPVRCGGPGDASPMGCGA [R20M], the protein stability index stood at 1.57.

Consider FLGSSFSPVRCGGPGDASPNGCGA [R20N], for which the protein stability index came to 2.

In the case of FLGSSFSPVRCGGPGDASPLGCGA [R20L], the protein stability index stood at 2.37.

Turning to FLGSSFSPVRCGGPGDASPGGCGA [R20G], the protein stability index turned out to be 1.36.

Consider FLGSSFSPVRCGGPGDASPYGCGA [R20Y], for which the protein stability index is 3.14.

In the case of FLGSSFSPVRCGGPGDASPSGCGA [R20S], the protein stability index turned out to be 1.55.

As to FLGSSFSPVRCGGPGDASPIGCGA [R20I], the protein stability index is 1.23.

Regarding FLGSSFSPVRCGGPGDASPKGCGA [R20K], the protein stability index came out at 1.62.
